From patent publication US20160053277A1, “Compositions Having Dicamba Decarboxylase Activity and Methods of Use” (PIONEER HI-BRED INTERNATIONAL, INC., priority 2013, published 2016)

Assays:
[1] = Shuffled variant libraries: 14CO2 capturing assay in 384-well format
[2] = Saturation mutagenesis of SEQ ID NO:109: dicamba decarboxylation activity of point mutants (carbon dioxide released); details: decarboxylation activity (carbon dioxide released) of point mutant compared with unmutated backbone protein; backbone SEQ ID NO: 109
[3] = decarboxylation activity (carbon dioxide released) compared with unmutated backbone protein SEQ ID NO 133 (DDEC0201)
[4] = decarboxylation activity (carbon dioxide released) compared with unmutated backbone protein SEQ ID NO 509 (DDEC0810)

| Molecule | Fold Activity [1, 3] | Fold Activity [2] | Fold Activity [1, 4] |
| --- | --- | --- | --- |
| 133 (protein, Dicamba decarboxylase variant) MAQGKVALEEHFAIPETLQDSAGFVPGDYWKELQHRLLDIQDTRLKLMDAHGIETMILSLAAPAVQAIPDRRKAIEIARRANDFLAEECAKRPDRFLAFAALPLQDPDAATEELQRCVNDLGFVGALVNGFSQEGDGQTPLYYDLPQYRPFWGEVEKLDVPFYLHPRNPLPQDSRIYDGHPWLLGPTWAFAQETAVHALRLMASGLFDEHPRLNIILGHMGEGLPYMMYRIDHRIAWVKLPPRYPAKRRFMDYFNENFHITTSGNFRTQTLIDAILEIGADRILFSTDWPFENIDHAADWFNATSIAEADRVKIGRTNARRLFKLDGA | 1.0 | 1.3 |  |
| 141 (protein, Dicamba decarboxylase variant) MAQGKVALEEHFAIPETLNDSAGFVPGDYWKELQHRLLDIQDTRLKLMDAHGIETMILSLAAPAVQAIPDRRKAIEIARRANDMLAEECAKRPDRFLAFAALPLQDPDAATEELQRCVNDLGFVGALVNGFSQEGDGQTPLYYDLPQYRPFWGEVEKLDVPFYLHPRNPLPQDSRIYDGHPWLLGPTWAFAQETAVHALRLMASGLFDEHPRLNIILGHMGEGLPYMMYRIDHRIAWVHEPPRYPAKRRFMDYFNENFHITTSGNFRTQTLIDAILEIGADRILFSTDWPFENIDHAADWFNATSIAEADRVKIGRTNARRLFKLDLD | 0.9 | 1.1 |  |
| 135 (protein, Dicamba decarboxylase variant) MAQGKVALEEHFAIPETLQDSAGFVPGDYWKELQHRLLDIQDTRLRLMDAHGIETMILSLAAPAVQAIPDRRKAIEIARRANDFLAEECAKRPDRFLAFAALPLQDPDAATEELQRCVNDLGFVGALVNGFSVEGDGQTPLYYDLPQYRPFWGEVEKLDVPFYLHPRNPLPQDSRIYDGHPWLLGPTWAFAQETAVHALRLMASGLFDEHPRLNIILGHLGEGLPYMMYRIDHRIAWVKLPPRYPAKRRFMDYFLENFHITTSGNFRTQTLIDAILEIGADRILFSTDWPFENIDHAADWFNATSIAEADRVKIGRTNARRLFKLDGD | 1.3 | 1.5 |  |
| 139 (protein, Dicamba decarboxylase variant) MAQGKVALEEHFAIPETLQDSAGFVPGDYWKELQHRLLDIQDTRLKLMDAHGIETMILSLAAPAVQAIPDRRKAIEIARRANDFLAEECAKRPDRFLAFAALPLQDPDAATEELQRCVNDLGFVGALVNGFSQEGDGQTPLYYDLPQYRPFWGEVEKLDVPFYLHPRNPLPQDSRIYDGHPWLLGPTWAFAQETAVHALRLMASGLFDEHPRLNIILGHMGEGLPYMMYRIDHRIAWVKLPPRYPAKRRFMDYFNENFHITTSGNFRTQTLIDAILEIGADRILFSTDWPFENIDHAADWFNATSIAEADRLKIGRTNARRLFKLDGD | 1.1 | 1.4 |  |
| 144 (protein, Dicamba decarboxylase variant) MAQGKVALEEHFAIPETLQDSAGFVPGDYWKELQHRLLDIQDTRLRLMDAHGIETMILSLAAPAVQAIPDRRKAIEIARRANDFLAEECAKRPDRFLAFAALPLQDPDAASEELQRCVNDLGFVGALVNGFSQEGDGQTPLYYDLPQYRPFWGEVEKLDVPFYLHPRNPLPQDSRIYDGHPWLLGPTWAFAQETAVHALRLMASGLFDEHPRLNIILGHMGEGLPYMMYRIDHRIAWVHEPPRYPAKRRFMDYFNENFHITTSGNFRTQTLIDAILEIGADRILFSTDWPFENIDHAADWFNATSIAEADRLKIGRTNARRLFKLDGD | 1.2 | 1.2 |  |
| 142 (protein, Dicamba decarboxylase variant) MAQGKVALEEHFAIPETLQDSAGFVPGDYWKELQHRLLDIQDTRLKLMDAHGIETMILSLAAPAVQAIPDRRKAIEIARRANDFLAEECAKRPDRFLAFAALPLQDPDAATEELQRTVNDLGFVGALVNGFSQEGDGQTPLYYDLPQYRPFWGEVEKLDVPFYLHPRNPLPQDSRIYDGHPWLLGPTWAFAQETAVHALRLMASGLFDEHPRLNIILGHLGEGLPYMMYRIDHRIAWVHEPPRYPAKRRFMDYFNENFHITTSGNFRTQTLIDAILEIGADRILFSTDWPFENIDHAADWFNATSIAEADRVKIGRTNARRLFKLDLD | 1.4 | 1 |  |
| 137 (protein, Dicamba decarboxylase variant) MAQGKVALEEHFAIPETLQDSAGFVPGDYWKELQHRLLDIQDTRLKLMDAHGIETMILSLAAPAVQAIPDRRKAIEIARRANDFLAEECAKRPDRFLAFAALPLQDPDAATEELQRCVNTLGFVGALVNGFSQEGDGQTPLYYDLPQYRPFWGEVEKLDVPFYLHPRNPLPQDSRIYDGHPWLLGPTWAFAQETAVHALRLMASGLFDEHPRLNIILGHMGEGLPYMMYRIDHRIAWVHEPPRYPAKRRFMDYFNENFHITTSGNFRTQTLIDAILEIGADRILFSTDWPFENIDHAADWFNATSIAEADRLKIGRTNARRLFKLDGA | 1.4 | 1.1 |  |
| 140 (protein, Dicamba decarboxylase variant) MAQGKVALEEHFAIPETLQDSAGFVPGDYWKELQHRLLDIQDTRLKLMDAHGIETMILSLAAPAVQAIPDRRKAIEIARRANDFLAEECAKRPDRFLAFAALPLQDPDAATEELQRCVNDLGFVGALVNGFSQEGDGQTPLYYDLPQYRPFWGEVEKLDVPFYLHPRNPLPQDSRIYDGHPWLLGPTWAFAQETAVHALRLMASGLFDEHPRLNIILGHLGEGLPYMMYRIDHRIAWVHEPPRYPAKRRFMDYFNENFHITTSGNFRTQTLIDAILEIGADRILFSTDWPFENIDHAADWFNATSIAEADRVKIGRTNARRLFKLDGA | 1.1 | 1.1 |  |
| 136 (protein, Dicamba decarboxylase variant) MAQGKVALEEHFAIPETLQDSAGFVPGDYWKELQHRLLDIQDTRLKLMDAHGIETMILSLAAPAVQAIPDRRKAIEIARRANDFLAEECAKRPDRFLAFAALPLQDPDAATEELQRCVNTLGFVGALVNGFSVEGDGQTPLYYDLPQYRPFWGEVEKLDVPFYLHPRNPLPQDSRIYDGHPWLLGPTWAFAQETAVHALRLMASGLFDEHPRLNIILGHLGEGLPYMMYRIDHRIAWVHEPPRYPAKRRFMDYFNENFHITTSGNFRTQTLIDAILEIGADRILFSTDWPFENIDHAADWFNATSIAEADRVKIGRTNARRLFKLDGA | 1.4 | 1.2 |  |
| 138 (protein, Dicamba decarboxylase variant) MAQGKVALEEHFAIPETLQDSAGFVPGDYWKELQHRLLDIQDTRLKLMDAHGIETMILSLAAPAVQAIPDRRKAIEIARRANDFLAEECAKRPDRFLAFAALPLQDPDAATEELQRCVNDLGFVGALVNGFSQEGDGQTPLYYDLPQYRPFWGEVEKLDVPFYLHPRNPLPQDSRIYDGHPWLLGPTWAFAQETAVHALRLMASGLFDEHPRLNIILGHMGEGLPYMMYRIDHRIAWVHEPPRYPAKRRFMDYFNENFHITTSGNFRTQTLIDAILEIGADRILFSTDWPFENIDHAADWFNATSIAEADRLKIGRTNARRLFKLDLD | 1.1 | 0.7 |  |
| 143 (protein, Dicamba decarboxylase variant) MAQGKVALEEHFAIPETLQDSAGFVPSEYLKELQHRLLDIQDTRLKLMDAHGIETMILSLAAPAVQAIPDRRKAIEIARRANDFLAEECAKRPDRFLAFAALPMQDVDAATEELQRCVNDLGFVGALVNGFSVEGDGQTPLYYDLPQYRPFWGEVEKLDVPFYLHPRNPLPQDSRIYDGHPWLLGPTWAFAQETAVHALRLMASGLFDEHPRLNIILGHMGEGLPYMMYRIDHRIAWVHEPPRYPAKRRFMDYFNENFHITTSGNFRTQTLIDAILEIGADRILFSTDWPFENIDHAADWFNATSIAEADRVKIGRTNARRLFKLDGD | 1.3 | 1.2 |  |
| 134 (protein, Dicamba decarboxylase variant) MAQGKVALEEHFAIPETLQDSAGFVPGDYWKELQHRLLDIQDTRLKLMDAHGIETMILSLAAPAVQAIPDRRKAIEIARRANDMLAEECAKRPDRFLAFAALPLQDPDAATEELQRCVNDLGFVGALVNGFSQEGDGQTPLYYDLPQYRPFWGEVEKLDVPFYLHPRNPLPQDSRIYDGHPWLLGPTWAFAQETAVHALRLMASGLFDEHPRLNIILGHLGEGLPYMMYRIDHRIAWVHEPPRYPAKRRLMDYFNENFHITTSGNFRTQTLIDAILEIGADRILFSTDWPFENIDHAADWFNATSIAEADRVKIGRTNARRLFKLDGA | 1.1 | 1.5 |  |
| 556 (protein, Dicamba decarboxylase variant) MAQGLVALEEHFAIPETLNDAAGFVPGCYWKELQHRLLDIQDTRLKEMDKHGIGTMILSLAAPAVQAIPDRRKAIELARRANDFLAEEVAKRPDRFLAFAALPMQDPDAATEELQRCVADLGFVGAMVNGFSQEGDGQTPLYYDLPQYRPFWKEVEKLDVPFYLHPRNPLPQDARIYDGHPWLLGPTWAFAQETAVHALRLMASGLFDEHPRLNIILGHMGEGLPYMMYRIDHRIAWVKAPPDYPAKRRFMDYFLENFHITTSGNFRTQTLIDAILEIGADRILFSTDWPFENIDHAADWFAATSIAEADRVKIGRTNARRLFKLDVR |  |  | 1.3 |
| 555 (protein, Dicamba decarboxylase variant) MAQGKVALEEHFAIPETLQDAAGFVPGCYWKELQHRLMDIQDTRLKEMDKHEIGTMVLSLAAPAVQAIPDRRKAIEIARRANDFLAEEVAKRPDRFLAFAALPLQDVDAATEELQRCVNDLGFVGAMVNGFSQEGDGQTPLYYDLPQYRPFWGEVEKLDVPFYLHPRNPLPQDARIYDGHPWLLGPTWAFAQETAVHALRLMASGLFDEHPRLNIILGHMGEGLPYMMYRIDHRIAWVKAPPDYPAKRRFMDYFLENFHITTSGNFRTQTLIDAILEIGADRILFSTDWPFENIGHAADWFNATSIAEADRVKIGRTNARRLFKLDVS |  |  | 0.8 |
